According to the DeepSol protein solubility set:

Assay: soluble on expression in E. coli; label from the status in PepcDB or PDB records

Soluble on expression in E. coli, not soluble:
MGSDKIHHHHHHMKPSGSAICIETAAMTMRFGSFTALDAVSIKVQAGSFHALLGENGAGKSTLVKCIMGFYRQTSGQLLVEDREVEIASPRDAAALGLGMVYQHFTLVPSLTGAENLVISRNAVPAMINWRRERQALNDFMATMPFQIPLERPVRELSAGEKQKLEIIKQLYLGRRFLILDEPTSVLTPAEADDMLGLVRSMTERGALTVLMISHKFHEVRKFADAVSVLRRGKLVGSGRTADLTTQEMAAMMIGDVKLAELDSRLPVVEASPSILSIRGMKTRDRSGLKSIEVDDLKVRAGEIVGIAGISGNGQKELAEVLAGQRPAEAGDITVKDRPYTATRQETRAANVRFIPEEPLLNACAPRMSVAENLSFRDFDVDAKGKTRFWLNAKAMRETAGRLIADFKVKTASPASPIASLSGGNVQRAVLARELTGDVDLLVVSNPCFGLDFSAVAEIRARIMKARNNGSAVLLFSEDLDELMEMSDRIVVMSDGRLVYETPARGADIAVIGAHMAGHA
MGSDKIHHHHHHMKRENLHQPFEICFSELDESQLKEHDHTFFELVYILSGTGIQWINNNKFPYHDGHLFMITPGDIHSFDIHTTTKFVYIKFNDIYIHSAVFGAENIQRLEFILQHANHRPGCILRNQTDKLLVKPMIEAIIREYVNRNIYSSEIITQLINTIVIVVARNIAMFLPEQIDENSEEKSLNILQYIQSNICYPEKIKAKAISQHFGISPNYLGRYFKKQTNETMQQYILNYKMKMVESRLLHSEMRISEIVEELGFTDESHLNRLFKKYKDCNPTDFRKKHRGQ
MGSDKIHHHHHHMKRFTLWNSYVAITESKEFVDWNKTKIIGSFKCPAFSYRSSTQIKADPFLFEYNNAIYLFYEEKYKNGKGYIVCTWTSDLKNWSQPVVVLKEPFHLSFPYVFKINDKIYMLPESNESNELRLYECVDFPYKWKLNKIIFDNGKYVDSSIICKGDIYYLFTTHKTENSFYHELYYCNDLLSDKWIKHPQSPISNNPKFARNGGSVFSHNNNLFRPAQDCSVSYGNNLSIFNVTHLSIDKYEETLVATNFFPKYKFKHGGHHFSHIEYKGQNIIAFDKKSREYAITPLFSSLYALICRLMKITSHK
MGSDKIHHHHHHMKRKRIDGMNIEIITATIDMLEEIVAIQTAAFSEREPMTMSLNFTKEEMYDYFLKIIPESINSGLTMAAVDEDKGAIAAVVICFDAFAVFPNMEWTQKEIDGISKTNIFFEELEKPLNTNPAFKPEKCVRLMYVSTDENYLRRGIARKLGESMINRAIDLGYELMIADATNINSAGMFEKLGFWQEKVLPYKLVEKDGLKAFGNVEGECILYSRYLQENCFS
MGSDKIHHHHHHMKRLITQALDGEAGCILSDCEQYRYRLWREWDRSAPGLGFIMLNPSSADHQVNDPTITRCLQRALAGKYGRLEVVNLFPLRSTDPDGLLTHPAPLGDRPDRNECAIMDALDRCSLVICAWGAHKAAPARAAEVLRIVRMCGRGNLLYHLGLNKDGSPKHPLYIAKTKRPEPFTSIPVTQVNREYAPHR
MGSDKIHHHHHHMKRTVTVKLQPSKAQEETLKELAIISSKAWNKVNYLRRQEFFEGKPVDFLKTEKIVYEEFKSEIGSATVQQICRKNADAWRSFFSLIRSKRNGELPKWFKPKPPEYVKEGGLIILRNDQYKIEGNKLILKGLGKFKRLEVQFKGRIHLKGKQGKLEITYDPIKRKWYAHISYTVKEKLYGGEWVEVPRQPLGNLSAGIDLGVNNLMAVYVENGESFLVNGRPLKSIDFYWRERIADYQSKLNKSGAKKSRKLSRMHEKAKLQAKHYINTAVRQTVERLYHLGVSRIVVGYPKGISRNSNRGKKQNYLLSHVWRFNYVIKRLREVAEEYGIQVLIVDEAFTSKLCPVCGKPHKGQGLFEDYLSVPRRGLPLMPTWLELSTF
MGSDKIHHHHHHMKSQWECFLQNLGVWEGSFSNFSPEGTLLNDTSSRLCLEGLNNNQTVRLTLSRSGKDDVIREFRSVGGGLLFFENGSFSEGLIQLGPFSEFGGELAFVHENRRLRLVQLFDRNGHLNGLTLIREHLAGTPVAERPLLQINDLLGEWRGQAVTIYRDLRPPDIYSTTLKIQLDDAGRLMQSTSFGERTITSTATIKGSIVLFDQDPEKQVQVLLLPDGASATSPLKVQLRQPLFLEAGWLIQSDLRQRMIRSYNDKGEWVSLTLVTEERV
MGSDKIHHHHHHMKSRFYRPLSLASVSPSYFPEIALYVRNSGNYILYKNHDRQFTEEDRHRLERTNTSFLYVRSGDMDAVTEYLEQNLDTLLARDDIDSNAKGTILYQTAANYVTDVFDEPGKTADIIRCRSLIRHLMKYVAGHEDALKALQAITSQNYYIFTHSVQVAALMMLVHDRLFRLNQDEMIDVGIGSLLHDVGMVFLSGQLLDKPDALAAIEYHKAKQHAQKGYEHLQSAGTLSEVSLTIVRHHHEKYDGSGYPAGLKGDDIPRSAQLAALCDTYCAMTTDRPKHTALPGAEALRIMEDEVGGAFSPDLFYRFADVVKGKGKA
MGSDKIHHHHHHMKSWPRPCSWACANPETKGRAYRTMSSSPTISPASDTFAAMTDDHRLAEFIREQASATRVVIQARKRLSGGAIQENWLLDLLIEGGPWAGVRRWVLRSDALSALPASLDREQEFAVLQVVYQAGVKVPRPLWLCRDVRVHGRVFFLMEYVPGSAAGRALSTGAGPQGRAQLATQLGANLARLHQVRPPCATLCFLSVPDSSPALATIDAYRRYLDTLADAYPVLEWGLRWCELHAPRSSTLCLLHRDYRTGNYLASEEGLEAVLDWEFTGWGDPCEDLGWFTARCWRFTRPDLEAGGIGQLEDFLRGYHEVSSLCIERSRLHYWQVMATLRWAVIALQQGQRHLSGEEPSLELALTARLLPELELDILHMTGAEAP
MGSDKIHHHHHHMKTEITLLKGETVMVEPKEFLKAGQAFHGHKCPAMPMGLRVGAAAMNKLGVERSKDGQLLDLVELGDGHCATCFADGIQMITGCTFGKGNIKKLHYGKWGVTLIDTQTGRAVRVTPKAEAMLANKKSEFFTEYRMKHIPASKVPAEVVEPLVEKVMNAPDDMLLNIGDVFDYEVPPKVESFSGFVCDICGEMVVEGYGRPLDDKKVCQPCYEKAQREH
MGSDKIHHHHHHMKTKETPEQKPEDMPIPIVDITSVEQQTVSLNLPSYGVVTPKYKTQLVTEVQGRMLTISPQFVAGGIVKKGDQLAQIEPSDYEADLMQAEATLAQATAALNEEIARGEVAKIEFKGYDKGLPPELGLRIPQLKKEQANVKYAQAALARAQRNLERTIIRAPFDGIIKARNVDLGQYVTLGTNLGELYDTSIAEIRLPISNDDLAYLESVDNPDTQVTLSASLAGKENTWIGNIIRSEGVIDADNRMVYLVAEIKDPYLREHKTQGSLPLKYGSFVNAVIKGRTVDGIVKLPRHVVRNEHVALINDNNIVEMRHVNVVRSDLQNVFIKDSLKTGERVAITHFNNMANGQLVKVIGEETKPAQTPAPESSLAATGVK
MGSDKIHHHHHHMKVDLCARKQADAQASVGIIQREGGTARAYQCDIANPDSVRDFSVQLLEDSTPVDILVLSAAQWLEGALGEEDTDTDIVSTINSGLTGSILLTKTLLPSLRRSQSADILAMISVCGVPQFHDSIAHPAFFAAKHGLSGFSQNLAHHVAQENIRVTGFYPPDFEVTGFDDYPASGEKMGEHLLNARSIWETMRFVLTQPRSCHINAIHFQGPTRTDIGPY
MGSDKIHHHHHHMKVHVLASGSTGNAVLFQFGESKILVDAGISCRRIENGLQAIGTRAGELDAVLLTHEHTDHIKGLDVFIRKYQLPVFARPATWSKIDCRKKFPGECIKELEGTFSLGKVLIEPFAISHDAIDPVGFCFYYGKRKAVIATDLGMVSREVEKALSFSDIAVLESNHDPQMLKNGPYPPYLKKRIEGREGHLSNFDTARLLSTVPRHNPMQVLLAHISQQNNHPMLAQQTVSKIMQDSGCEVGREIGIYPTFPHHGITCTMTRVFAVNAPLFQWADLLAKQDGRGKAN
MGSDKIHHHHHHMKVLDVIKQIQQAIVYIEDRLLEPFNLQELSDYVGLSPYHLDQSFKMIVGQSPEEYARARKMTIAANDVVNGASRLMDVAKKYRYANSNDFANDFSDFHGISPIQATTKKDELKIQQRLYIKLSTTENAPYTYRLQETDDISLVGYSRFIPTEQLSNPFNIPDFLEDLLVDGYIKELKRYNDTSPYELFVVSCPLEQGLEIFVGVPSERYPSHLESRFLPGRHYALFNLQGEIDYATNEAWYYIESSLQLTLPYERNSLYVEIYPLDISFNDPFTKIQLWLPIKQEIYDLDEGYQN
MGSDKIHHHHHHMKVTFLGHAVVLIEGKKNIIIDPFISGNPVCPVKLEGLPKIDYILVTHGHGDHLGDAVEIAKKNDATVISNYEICHYLGKKGVKTHAMHIGGSYLFDFGRVKMTPAVHGSGILDGDSMIYGGNPSGFLITIEGKKIYHAGDTGLTREMELLAEENVDVAFLPIGGNFVMDVEDAVRAAVMIKPKKVVPMHYGTWELIFADVELFKKKVEEKGVECVILEPGESLEL
MGSDKIHHHHHHMKYREILEAAVRAPSGENCQPWRFVMEGDVIRIFNIPDQDTSLFNLHQRASYVAHGALLENLSIAAPAFGYAPDISLFPDSHVPNLVAAVRMTEGPSFDDSLYPYIPKRCTNRKRYNGGALSAAESQTLLSVAERVPGGKVALTGSVQDKAEVAEVNALNDRLVFENEHLHAFLFEHVRWSDAEARERGDGLDIKTLELAPPDSLAFPLLKSWPLVDFLKNFGVPRIIAGSARKLALSAAAIGVVSVPGKGDKDCIAAGRLIERVWLEATKLGLSFQLMTGITLLMRRVLDGETENISSQHGELIKKAYGTLANRFGVEDGSLFIMFRVGRCGPPSVYSMRYPIDKVIDAP
MGSDKIHHHHHHMLARGKTNLKIEEIRMHKHHEIHRVKPLMPALCRIRQGKKVINWETHTLTVDNNQIILFPCGYEFYIENYPEAGLYLAEMLYLPIDLIESFQKLYTVTDQIRNKTSFFLPQNPELIYCWEQLKTSVSRGFSTKIQEHLAMGVLLSLGVNHVNHLLLSYSKQSLISRCYNLLLSEPGTKWTANKVARYLYISVSTLHRRLASEGVSFQSILDDVRLNNALSAIQTTVKPISEIARENGYKCPSRFTERFHNRFNITPREIRKASRE
MGSDKIHHHHHHMLASDLLVIDFAQKDDVLKLYPEAPLLSSDKAQWDGIQLQYHRHPPHQLSENHSKQHRIIIHDRSPSPPMVEEMIEHRFQKRQFGYGDVTVVPADVLNSAYWNTEYEFITLSFEARTFARHTFDLTTATDIELVPSFSKPDQLIYSLGFALKSELESSGVGSRLYIDSLTAALMTHLLRHYSAQRSISRPQSGLAKCQLQKVIDFINQNLEQDLALAELAAIVQMSPSYFSTLFKHSTGLAPHQYVIQCRVDRAKQLLRQSNLTIAEIAYSLGFTHQSHLSRHFKRLVGVSPKVFIKSQ
MGSDKIHHHHHHMLDENEDIHPLFAGAPATTEFKKLRKRIVRYTREAIEQYGMVERRADGSTPKWLVCLSGGKDSYTLLAVLYELKWRGLLPVDLLACNLDQGQPGFPSTVLPEFLDRMGVPNRIEYQDTYSVVVDKVPQGRTYCALCSRLRRGNLYRIAREEGCSAVVLGHHRDDILETFFMNLFHGGRLATMPPKLVNEEGDLFVFRPLAHVAEADCEKFARAMNYPIIPCDLCGSQDGLQRQQVKQILDGWEKNRPGRRQVMFRALMNARPSHLLDPKLFDFQGLELGSREKGENFGEIPLLR
